B1: ZL525 (antibody, V domains shown)
V domain 1: QVQLVQSGAEVKKPGSSMKVSCQASGGTFSSHPISWIRQAPGQGLEWMGRIIPIAGMTDYGQKFQGRITITADTSTSTSYVELRGLRSQDTAFYYCAKDVGYSDYGSAYYFHTWGQGTLITVSS
V domain 2: QSVLTQPPSVSGAPGQRVTISCTGSNSNIGAGYDVHWYQQLPGTAPKLLIYRNNKRPSGVPDRFSGSKSDTSASLAITGLQAEDEAHYYCQSFDSSLGGSLFGGGTKLAVL
B2: BD56-104-R1-32 HCDR3 (antibody, V domains shown)
VH: QVQLVQSGAEVKTPGSSVKVSCKASGGTFGSHSITWVRQAPGQGLEWMGRVIPILGIPDFAESFQGRVAITADRSTSTAHMELSRLRSEDTAVYYCARENGYSGYGAAANFDLWGQGTLVTVSS
VL: QSVLTQPPSVSGAPGQRVTISCTGSNSNIGAGYDVHWYRQLPGTAPKLLIYVNNNRPSGVPDRFSGSRSGASASLAITGLQAEDEAEYYCQSYDSSLSGSIFGGGTKLTVL
B3: BD56-104 (antibody, V domains shown)
VH: QVQLVQSGAEVKTPGSSVKVSCKASGGTFGSHSITWVRQAPGQGLEWMGRVIPILGIPDFAESFQGRVAITADRSTSTAHMELSRLRSEDTAVYYCARDVGYSGSGSSNYFDSWGQGTLVTVSS
VL: QSVLTQPPSVSGAPGQRVTISCTGSNSNIGAGYDVHWYRQLPGTAPKLLIYVNNNRPSGVPDRFSGSRSGASASLAITGLQAEDEAEYYCQSYDSSLSGSIFGGGTKLTVL
B4: C092 (antibody, V domains shown)
VH: QVQLVQSGAEVKKPGSSVKVSCKASGGSFTNHFISWVRQAPGQGLEWMGRIIPILGTANYAQNFQGRVMMTADKSTSTAYMELSSLRSEDTAVYYCARDSGYSGYGSTYYMDVWGKGTTVTVSS
VL: QSVLTQPPSVSGAPGQRVTISCTGSNSNIGAGYDVHWYQQLPGAAPKLLIYGNNNRPSGVPDRFSGSKSDTSASLAITGLQVEDEADYYCQSYDSSLSDSVFGSGTKVTVL
B5: C807 (antibody, V domains shown)
VH: QVQLVQSGAEAKKPGSSVKVSCKASGGTFKSYIINWVRQAPGQGLEWMGEIIPIFGTANYAQKFQGRVTSTADESTSTAYMELSSLKSEDTAVYYCARGRGYSGYGASYYFDYWGQGTLVTVSS
VL: QSVLTQPPSVSGAPGQRVTISCTGSNSNIGAGYDVHWYQQLPGTAPKLLIYANSNRPSGVPDRFSGSKSGTSASLAITGLQAEDEADYYCQSYDSGLSGSVFGGGTKLTVL
B6: R1-32 (antibody, V domains shown)
VH: EVQLVESGAEVKKPGSSVKVSCKASGGTFSSYAISWVRQAPGQGLEWMGGIIPILGIANYAQKFQGRVTITADKSTSTAYMELSSLRSEDTAVYYCARENGYSGYGAAANFDLWGRGTLVTVSS
VL: QSVLTQPPSVSGAPGQRVTISCTGSSSNIGAGYDVHWYQQLPGTAPKLLIYGNSNRPSGVPDRFSGSKSGTSASLAITGLQAEDEADYYCQSYDSSLSGSVFGGGTKLTVL
B7: R1-32-AAM (R1-32-artificial-affinity-matured) (antibody, V domains shown)
VH: EVQLVESGAEVKKPGSSVKVSCKASGGTFSSYFISWVRQAPGQGLEWMGGIIPILGIADYAEKFQGRVTITADKSTSTAYMELSSLRSEDTAVYYCARENGYSGYGAAYNFDLWGRGTLVTVSS
VL: QSVLTQPPSVSGAPGQRVTISCTGSDSNIGAGYDVHWYQQLPGTAPKLLIYGNSNRPSGVPDRFSGSKSDTSASLAITGLQAEDEADYYCQSYDSSLSDSVFGGGTKLTVL
B8: BD56-597 (antibody, V domains shown)
VH: QVQLVQSGAEVKKPGSSVKVSCKASGGTFSTYPISWVRQAPGQGVEWMGAIIPILGTTDYAQIFQGRVTITADKSTSTAYMELSSLRPEDTAVYYCARERGYSGYGAAYYFDSWGQGTLVTVSS
VL: QSVLTQPPSVSGAPGQRVTISCTGSDSNIGAGYDVHWYQQLPGTAPKLLIYVNINRPSGVPDRFSGSKSATSASLAITGLQAEDEADYYCQSYDSSLSGVVFGGGTKLTVL

Tests used:
Experiment in all cases: BLI
GX2013 RBD = GX2013 RBD (SARSr-CoV BtRs-BetaCoV/GX2013)
HeB2013 RBD = HeB2013 RBD (SARSr-CoV BtRf-BetaCoV/HeB2013)
SARS-CoV-1 RBD = SARS-CoV-1 RBD (SARS-CoV-1, strain not named, UniProt P59594)
Bat-RaTG13 RBD = Bat-RaTG13 RBD (Bat coronavirus RaTG13, UniProt A0ABF7PLN6)
Bat-RsSHC014 RBD = Bat-RsSHC014 RBD (Bat SARS-like coronavirus RsSHC014, UniProt U5WLK5)
SARS-CoV-2 wild-type RBD = SARS-CoV-2 wild-type RBD (SARS-CoV-2, UniProt P0DTC2)
Bat-WIV1 RBD = Bat-WIV1 RBD (Bat SARS-like coronavirus WIV1, UniProt U5WI05)

Binder	binding result (GX2013 RBD)	binding result (HeB2013 RBD)	binding result (SARS-CoV-1 RBD)	binding result (Bat-RaTG13 RBD)	binding result (Bat-RsSHC014 RBD)	binding result (SARS-CoV-2 wild-type RBD)	binding result (Bat-WIV1 RBD)
B1	binds	binds	binds	binds	binds	binds	binds
B2	–	–	–	–	–	binds	–
B3	binds	binds	–	binds	binds	binds	no binding (tested: 200 nM RBD)
B4	binds	binds	–	binds	binds	binds	binds
B5	binds	binds	–	binds	binds	binds	binds
B6	–	–	–	binds	binds	binds	–
B7	–	–	–	–	–	binds	–
B8	binds	binds	–	binds	binds	binds	binds
